# From patent US7101843B2, “Glucagon-like peptide-1 analogs” (Eli Lilly and Company, priority 2001, dated 2006)
# Several values for one entry are separate records, joined by “and”; a condition that tells them apart may be missing. Equal values may be shown once.
# Assays:
# [1] = tested on: plasma insulin and plasma glucose; assay: Intravenous glucose tolerance test (IVGTT) in rats; assay type: in vivo, wistar male rats; conditions: plasma insulin after injection (figures)
# Protocol: FIG. 1 graphs plasma insulin and plasma glucose concentrations obtained at various time points after injection of increasing concentrations of Val^8-GLP-1(7–37)OH in rats.
# FIG. 2 graphs plasma insulin concentrations obtained at various time points after injection of increasing concentrations of Val^8-Glu^22-Val^25-Ile^33-GLP-1 (7–37)OH in rats.
# A double cannulation procedure was performed on fasting wistar male rats to facilitate injection of solutions and withdrawal of blood. Rats were injected through the jugular cannula with a bolus of 10% glucose solution followed by a solution containing a specific amount of a GLP-1 compound. Rats were injected with 0.01, 0.03, 0.1, 0.3, 1, and 10 μg/kg of GLP-1 compound. Blood was collected through the carotid cannula 2, 4, 6, 10, and 30 minutes following the injection of GLP-1 compound and analyzed. Plasma insulin and plasma glucose levels were measured in each sample. Average insulin and glucose levels are illustrated in FIGS. 1, 2, and 3.
# [2] = molecular target: GLP-1 receptor (Homo sapiens, UniProt P43220); assay: GLP-1 receptor activation in vitro; assay type: cell-based; conditions: Val^8-GLP-1(7-37)OH = 1.0, several values in a cell are repeat determinations
# Sequence of GLP-1 receptor (P43220 24-463, species assumed): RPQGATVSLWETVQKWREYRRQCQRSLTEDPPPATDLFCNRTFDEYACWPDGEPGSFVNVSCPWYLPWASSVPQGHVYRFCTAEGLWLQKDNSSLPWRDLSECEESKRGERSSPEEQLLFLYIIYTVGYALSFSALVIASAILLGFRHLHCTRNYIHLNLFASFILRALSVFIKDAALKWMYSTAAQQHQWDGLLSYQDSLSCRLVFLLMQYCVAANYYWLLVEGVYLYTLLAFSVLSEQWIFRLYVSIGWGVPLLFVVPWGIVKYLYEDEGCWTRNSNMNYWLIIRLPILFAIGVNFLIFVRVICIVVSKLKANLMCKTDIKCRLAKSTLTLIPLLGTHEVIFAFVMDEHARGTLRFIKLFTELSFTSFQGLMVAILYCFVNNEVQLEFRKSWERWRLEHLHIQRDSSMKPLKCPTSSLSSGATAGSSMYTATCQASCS
# Source text: “Insulinotropic activity” refers to the ability to stimulate insulin secretion in response to elevated glucose levels, thereby causing glucose uptake by cells and decreased plasma glucose levels. […] The entire teachings of these references are incorporated herein by reference.
# The entire teachings of these references are incorporated herein by reference.
# [3] = GLP aggregation assay (turbidity at 350 nm, time to onset of aggregation); assay type: physicochemical; conditions: for aggregation time: at 30° C., stirred solution, pH 7.4
# Protocol: GLP peptides of this invention were analyzed with respect to their potential to aggregate in solution. In general, peptides in solution were stirred at elevated temperature in a suitable buffer while recording turbidity at 350 nm as a function of time. Time to the onset of aggregation was measured to quantify the potential of a given GLP molecule to aggregate under these stressed conditions.
# A GLP-1 compound was first dissolved under alkaline conditions (pH 10.5) for 30 minutes to dissolve any pre-aggregated material. The solution was then adjusted to pH 7.4 and filtered. Specifically, 4 mg of a lyophilized GLP-1 compound was dissolved in 3 ml of 10 mM phosphate/10 mM citrate. The pH was adjusted to 10.0–10.5 and held for 30 minutes. The solution was adjusted with HCl to pH 7.4 and filtered through a suitable filter, for example a Millex GV syringe filter (Millipore Corporation, Bedford, Mass.). […] Every five minutes the turbidity of the solution was measured at 350 nm on an AVIV Model 14DS UV-VIS spectrophotometer (Lakewood, N.J.). For 30 seconds prior to and during the measurement the solution was stirred using a magnetic stir bar from Starna Cells, Inc. (Atascadero, Calif.). An increase in OD at 350 nm indicates aggregation of the GLP-peptide. The time to aggregation was approximated by the intersection of linear fits to the pre-growth and growth phase according to method of Drake (Arvinte T, Cudd A, and Drake A F. (1993) J. Bio. Chem. 268, 6415–6422).
GLP-1 receptor activation relative to Val^8-GLP-1(7-37)OH [2],Substance,in vivo potency compared to Val^8-GLP-1(7–37)OH [1],aggregation time [3],propensity to aggregate in solution compared to Val^8-GLP-1(7–37)OH [3]
4.9 and 5.8 and 6.7,Val^8-Glu^22-Val^25-Ile^33-GLP-1(7-37)OH (HVEGTFTSDVSSYLEEQAVKEFIAWLIKGRG) [GLP-1 analog],higher in vivo potency,,
,Val^8-His^37-GLP-1(7-37)OH (HVEGTFTSDVSSYLEGQAAKEFIAWLVKGRH) [GLP-1 analog],,greater than 40 hours,markedly decreased propensity to aggregate
3.6 and 3.8 and 4.9 and 4.6,Val^8-Tyr^16-Glu^22-GLP-1(7-37)OH (HVEGTFTSDYSSYLEEQAAKEFIAWLVKGRG) [GLP-1 analog],,,
4.7 and 2.9,Val^8-Glu^22-Val^25-GLP-1(7-37)OH (HVEGTFTSDVSSYLEEQAVKEFIAWLVKGRG) [GLP-1 analog],,,
4.7 and 3.8 and 3.4,Val^8-Glu^22-Ile^33-GLP-1(7-37)OH (HVEGTFTSDVSSYLEEQAAKEFIAWLIKGRG) [GLP-1 analog],,,
,Val^8-Glu^22-GLP-1(7–37)OH,,approximately 72 hours,markedly decreased propensity to aggregate
5.1 and 5.9,Val^8-Tyr^18-Glu^22-GLP-1(7-37)OH (HVEGTFTSDVSYYLEEQAAKEFIAWLVKGRG) [GLP-1 analog],,,
,Val^8-Glu^30-GLP-1(7-37)OH (HVEGTFTSDVSSYLEGQAAKEFIEWLVKGRG) [GLP-1 analog],,approximately 30 hours,markedly decreased propensity to aggregate
